According to paper PMC9482650, “Quantitative fragmentomics allow affinity mapping of interactomes” (Nature Communications, 2022):

T1: CARD11, Q9BXL7
T1 sequence (Q9BXL7 662-765, limits assumed, looked up): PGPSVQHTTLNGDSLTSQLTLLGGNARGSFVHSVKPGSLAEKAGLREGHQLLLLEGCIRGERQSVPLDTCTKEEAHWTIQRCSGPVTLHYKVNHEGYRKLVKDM

T2: DLG3_2, Q92796
T2 sequence (Q92796 221-321, limits assumed, looked up): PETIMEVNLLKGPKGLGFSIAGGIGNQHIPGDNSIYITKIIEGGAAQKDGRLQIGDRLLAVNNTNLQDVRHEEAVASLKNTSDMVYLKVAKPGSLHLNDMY

T3: FRMPD1, Q5SYB0
T3 sequence (Q5SYB0 52-145, limits assumed, looked up): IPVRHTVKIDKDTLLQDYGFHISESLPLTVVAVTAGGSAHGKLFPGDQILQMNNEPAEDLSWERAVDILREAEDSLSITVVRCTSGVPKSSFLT

T4: GRIP1_4, Q9Y3R0
T4 sequence (Q9Y3R0 467-571, limits assumed, looked up): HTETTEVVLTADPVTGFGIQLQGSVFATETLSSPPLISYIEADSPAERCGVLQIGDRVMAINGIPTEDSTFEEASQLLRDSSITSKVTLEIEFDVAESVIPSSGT

T5: LIN7A, O14910
T5 sequence (O14910 103-200, limits assumed, looked up): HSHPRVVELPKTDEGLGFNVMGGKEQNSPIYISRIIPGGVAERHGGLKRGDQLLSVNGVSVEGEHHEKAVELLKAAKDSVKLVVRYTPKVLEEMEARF

T6: MPP6, Q9NZW5
T6 sequence (Q9NZW5 125-219, limits assumed, looked up): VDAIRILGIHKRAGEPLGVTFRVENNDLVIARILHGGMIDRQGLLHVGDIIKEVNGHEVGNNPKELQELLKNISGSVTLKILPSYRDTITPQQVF

T7: MPP7, Q5T2T1
T7 sequence (Q5T2T1 134-230, limits assumed, looked up): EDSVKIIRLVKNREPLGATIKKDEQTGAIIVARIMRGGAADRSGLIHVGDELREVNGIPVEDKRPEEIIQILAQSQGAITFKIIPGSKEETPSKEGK

T8: RAPGEF6, Q8TEU7
T8 sequence (Q8TEU7 525-625, limits assumed, looked up): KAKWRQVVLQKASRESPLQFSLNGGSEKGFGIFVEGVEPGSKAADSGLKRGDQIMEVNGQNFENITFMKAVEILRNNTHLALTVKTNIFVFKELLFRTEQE

T9: SNTG1, Q9NSN8
T9 sequence (Q9NSN8 52-150, limits assumed, looked up): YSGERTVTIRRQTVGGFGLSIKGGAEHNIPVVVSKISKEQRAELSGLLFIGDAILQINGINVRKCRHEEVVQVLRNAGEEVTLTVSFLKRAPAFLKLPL


How the values were obtained:
Assay in all cases: holdup assay
Design in all cases: key: below the threshold = too weak to quantify, mostly under pKd 3.1 to 4
Conditions in all cases: plain residues with an end cap or a label only (N-terminal biotin on a linker: ado-ado)
AHNAK1, Q09666 = biological target: AHNAK1, Q09666
AHNAK1, Q09666, sequence (Q09666 4-100): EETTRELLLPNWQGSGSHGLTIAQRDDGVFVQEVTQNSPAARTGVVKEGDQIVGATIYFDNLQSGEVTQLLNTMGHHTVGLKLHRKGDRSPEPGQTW

CARD11, Q9BXL7 = biological target: T1, CARD11, Q9BXL7
DLG1_2, Q12959 = biological target: DLG1_2, Q12959
DLG1_2, Q12959, sequence (Q12959 314-412): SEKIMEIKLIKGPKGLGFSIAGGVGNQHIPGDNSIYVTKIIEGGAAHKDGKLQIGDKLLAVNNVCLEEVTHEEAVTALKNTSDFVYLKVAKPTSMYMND

DLG3_2, Q92796 = biological target: T2, DLG3_2, Q92796
FRMPD1, Q5SYB0 = biological target: T3, FRMPD1, Q5SYB0
FRMPD2_3, Q68DX3 = biological target: FRMPD2_3, Q68DX3
FRMPD2_3, Q68DX3, sequence (Q68DX3 1073-1166): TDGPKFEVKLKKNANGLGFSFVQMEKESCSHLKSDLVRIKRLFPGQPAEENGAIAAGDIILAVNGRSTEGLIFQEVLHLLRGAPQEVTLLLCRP

GRIP1_4, Q9Y3R0 = biological target: T4, GRIP1_4, Q9Y3R0
GRIP2_4, Q9C0E4 = biological target: GRIP2_4, Q9C0E4
GRIP2_4, Q9C0E4, sequence (Q9C0E4 446-548): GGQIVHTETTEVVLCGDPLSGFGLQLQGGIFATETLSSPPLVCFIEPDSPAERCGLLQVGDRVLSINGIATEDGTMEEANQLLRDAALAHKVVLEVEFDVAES

GRIP2_5, Q9C0E4 = biological target: GRIP2_5, Q9C0E4
GRIP2_5, Q9C0E4, sequence (Q9C0E4 544-642): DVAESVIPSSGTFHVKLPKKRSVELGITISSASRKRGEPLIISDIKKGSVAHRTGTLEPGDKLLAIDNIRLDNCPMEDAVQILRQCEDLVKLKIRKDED

GRIP2_6, Q9C0E4 = biological target: GRIP2_6, Q9C0E4
GRIP2_6, Q9C0E4, sequence (Q9C0E4 648-740): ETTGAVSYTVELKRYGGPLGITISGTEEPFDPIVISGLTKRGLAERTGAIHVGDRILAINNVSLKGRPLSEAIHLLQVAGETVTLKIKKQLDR

HTRA1, Q92743 = biological target: HTRA1, Q92743
HTRA1, Q92743, sequence (Q92743 360-477): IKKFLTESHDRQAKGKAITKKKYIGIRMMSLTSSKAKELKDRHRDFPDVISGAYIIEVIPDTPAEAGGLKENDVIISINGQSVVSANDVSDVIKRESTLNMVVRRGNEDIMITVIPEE

HTRA2, O43464 = biological target: HTRA2, O43464
HTRA2, O43464, sequence (O43464 355-458): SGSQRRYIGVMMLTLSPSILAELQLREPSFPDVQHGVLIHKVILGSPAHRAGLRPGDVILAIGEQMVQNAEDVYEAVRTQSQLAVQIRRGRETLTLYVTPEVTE

IL16_3, Q14005 = biological target: IL16_3, Q14005
IL16_3, Q14005, sequence (Q14005 1107-1207): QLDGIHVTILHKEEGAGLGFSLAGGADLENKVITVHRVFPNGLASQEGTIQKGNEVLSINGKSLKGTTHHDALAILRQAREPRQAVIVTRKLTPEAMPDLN

IL16_4, Q14005 = biological target: IL16_4, Q14005
IL16_4, Q14005, sequence (Q14005 1229-1329): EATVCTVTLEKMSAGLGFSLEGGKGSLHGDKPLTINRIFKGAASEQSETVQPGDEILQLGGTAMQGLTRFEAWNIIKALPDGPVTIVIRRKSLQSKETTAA

Inadl_9, Q8NI35 = biological target: Inadl_9, Q8NI35
Inadl_9, Q8NI35, sequence (Q8NI35 1530-1615): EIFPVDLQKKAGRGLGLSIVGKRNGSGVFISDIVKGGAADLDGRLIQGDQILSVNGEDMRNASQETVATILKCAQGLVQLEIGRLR

LDB3, O75112 = biological target: LDB3, O75112
LDB3, O75112, sequence (O75112 1-94): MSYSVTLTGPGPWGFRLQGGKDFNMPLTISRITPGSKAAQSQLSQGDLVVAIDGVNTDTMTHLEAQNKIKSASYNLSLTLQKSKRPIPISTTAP

LIMK2, P53671 = biological target: LIMK2, P53671
LIMK2, P53671, sequence (P53671 143-248): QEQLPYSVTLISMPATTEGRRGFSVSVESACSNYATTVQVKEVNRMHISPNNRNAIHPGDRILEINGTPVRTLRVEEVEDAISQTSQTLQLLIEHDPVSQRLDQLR

LIN7A, O14910 = biological target: T5, LIN7A, O14910
LNX1_1, Q8TBB1 = biological target: LNX1_1, Q8TBB1
LNX1_1, Q8TBB1, sequence (Q8TBB1 261-371): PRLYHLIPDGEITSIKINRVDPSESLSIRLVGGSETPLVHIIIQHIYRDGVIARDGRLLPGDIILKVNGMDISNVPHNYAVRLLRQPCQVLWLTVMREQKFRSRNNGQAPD

LNX1_3, Q8TBB1 = biological target: LNX1_3, Q8TBB1
LNX1_3, Q8TBB1, sequence (Q8TBB1 500-596): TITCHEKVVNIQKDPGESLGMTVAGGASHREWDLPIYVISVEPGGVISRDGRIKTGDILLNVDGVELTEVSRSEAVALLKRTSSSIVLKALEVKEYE

MAGI1_1, Q96QZ7 = biological target: MAGI1_1, Q96QZ7
MAGI1_1, Q96QZ7, sequence (Q96QZ7 1-106): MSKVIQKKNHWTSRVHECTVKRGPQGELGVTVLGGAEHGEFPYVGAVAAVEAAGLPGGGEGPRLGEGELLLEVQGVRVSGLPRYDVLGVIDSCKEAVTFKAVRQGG

MAGI1_2, Q96QZ7 = biological target: MAGI1_2, Q96QZ7
MAGI1_2, Q96QZ7, sequence (Q96QZ7 456-580): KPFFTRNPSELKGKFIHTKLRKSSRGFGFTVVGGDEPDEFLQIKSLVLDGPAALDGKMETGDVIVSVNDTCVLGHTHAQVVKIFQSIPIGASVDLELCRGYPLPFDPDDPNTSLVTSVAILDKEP

MAST1, Q9Y2H9 = biological target: MAST1, Q9Y2H9
MAST1, Q9Y2H9, sequence (Q9Y2H9 962-1065): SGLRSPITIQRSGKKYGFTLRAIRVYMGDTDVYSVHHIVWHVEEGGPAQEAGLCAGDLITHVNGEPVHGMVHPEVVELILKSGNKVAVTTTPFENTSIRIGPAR

MPP6, Q9NZW5 = biological target: T6, MPP6, Q9NZW5
MPP7, Q5T2T1 = biological target: T7, MPP7, Q5T2T1
NHERF4_4, Q86UT5 = biological target: NHERF4_4, Q86UT5
NHERF4_4, Q86UT5, sequence (Q86UT5 464-550): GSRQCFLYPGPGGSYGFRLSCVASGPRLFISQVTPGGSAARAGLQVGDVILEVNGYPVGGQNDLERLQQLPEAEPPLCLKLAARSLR

PDZRN4_1, Q6ZMN7 = biological target: PDZRN4_1, Q6ZMN7
PDZRN4_1, Q6ZMN7, sequence (Q6ZMN7 213-318): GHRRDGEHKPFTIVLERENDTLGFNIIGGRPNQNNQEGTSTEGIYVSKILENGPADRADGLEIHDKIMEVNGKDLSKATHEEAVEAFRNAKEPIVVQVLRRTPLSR

RAPGEF6, Q8TEU7 = biological target: T8, RAPGEF6, Q8TEU7
SNTG1, Q9NSN8 = biological target: T9, SNTG1, Q9NSN8

| Binder | pKd (AHNAK1, Q09666) | pKd (CARD11, Q9BXL7) | pKd (DLG1_2, Q12959) | pKd (DLG3_2, Q92796) | pKd (FRMPD1, Q5SYB0) | pKd (FRMPD2_3, Q68DX3) | pKd (GRIP1_4, Q9Y3R0) | pKd (GRIP2_4, Q9C0E4) | pKd (GRIP2_5, Q9C0E4) | pKd (GRIP2_6, Q9C0E4) | pKd (HTRA1, Q92743) | pKd (HTRA2, O43464) | pKd (IL16_3, Q14005) | pKd (IL16_4, Q14005) | pKd (Inadl_9, Q8NI35) | pKd (LDB3, O75112) | pKd (LIMK2, P53671) | pKd (LIN7A, O14910) | pKd (LNX1_1, Q8TBB1) | pKd (LNX1_3, Q8TBB1) | also measured |
| --- | --- | --- | --- | --- | --- | --- | --- | --- | --- | --- | --- | --- | --- | --- | --- | --- | --- | --- | --- | --- | --- |
| QKNRKAQEDL [CES3, Q6UWW8] | below the threshold | 3.5 | below the threshold | 4.21 | below the threshold | below the threshold | below the threshold | below the threshold | below the threshold | below the threshold | below the threshold | below the threshold | below the threshold | 3.63 | below the threshold | below the threshold | below the threshold | below the threshold | below the threshold | below the threshold | pKd (MAGI1_1, Q96QZ7): below the threshold; pKd (MAGI1_2, Q96QZ7): below the threshold; pKd (MAST1, Q9Y2H9): below the threshold; pKd (MPP6, Q9NZW5): below the threshold; pKd (MPP7, Q5T2T1): 3.61; pKd (NHERF4_4, Q86UT5): below the threshold; pKd (PDZRN4_1, Q6ZMN7): below the threshold; pKd (RAPGEF6, Q8TEU7): below the threshold; pKd (SNTG1, Q9NSN8): below the threshold |
| IPLDGETEEL [MYOZ1, Q9NP98] | below the threshold | below the threshold | below the threshold | below the threshold | below the threshold | below the threshold | below the threshold | below the threshold | below the threshold | below the threshold | 3.99 | below the threshold | below the threshold | below the threshold | below the threshold | 4.46 | below the threshold | below the threshold | below the threshold | below the threshold | pKd (MAGI1_1, Q96QZ7): below the threshold; pKd (MAGI1_2, Q96QZ7): below the threshold; pKd (MAST1, Q9Y2H9): 4.1; pKd (MPP6, Q9NZW5): below the threshold; pKd (MPP7, Q5T2T1): below the threshold; pKd (NHERF4_4, Q86UT5): below the threshold; pKd (PDZRN4_1, Q6ZMN7): below the threshold; pKd (RAPGEF6, Q8TEU7): below the threshold; pKd (SNTG1, Q9NSN8): below the threshold |

Now from value to binder, other results behind:

| pKd (AHNAK1, Q09666) | pKd (CARD11, Q9BXL7) | pKd (DLG1_2, Q12959) | pKd (DLG3_2, Q92796) | pKd (FRMPD1, Q5SYB0) | pKd (FRMPD2_3, Q68DX3) | pKd (GRIP1_4, Q9Y3R0) | pKd (GRIP2_4, Q9C0E4) | pKd (GRIP2_5, Q9C0E4) | pKd (GRIP2_6, Q9C0E4) | pKd (HTRA1, Q92743) | pKd (HTRA2, O43464) | pKd (IL16_3, Q14005) | pKd (IL16_4, Q14005) | pKd (Inadl_9, Q8NI35) | pKd (LDB3, O75112) | pKd (LIMK2, P53671) | pKd (LIN7A, O14910) | pKd (LNX1_1, Q8TBB1) | pKd (LNX1_3, Q8TBB1) | Binder | also measured |
| --- | --- | --- | --- | --- | --- | --- | --- | --- | --- | --- | --- | --- | --- | --- | --- | --- | --- | --- | --- | --- | --- |
| below the threshold | below the threshold | below the threshold | below the threshold | below the threshold | below the threshold | below the threshold | below the threshold | below the threshold | below the threshold | 4.11 | 3.59 | below the threshold | 3.77 | 4.34 | below the threshold | below the threshold | below the threshold | below the threshold | 3.61 | QMNQTLPVQV [EPHB3, P54753] | pKd (MAGI1_1, Q96QZ7): below the threshold; pKd (MAGI1_2, Q96QZ7): below the threshold; pKd (MAST1, Q9Y2H9): 3.93; pKd (MPP6, Q9NZW5): below the threshold; pKd (MPP7, Q5T2T1): below the threshold; pKd (NHERF4_4, Q86UT5): 3.92; pKd (PDZRN4_1, Q6ZMN7): below the threshold; pKd (RAPGEF6, Q8TEU7): below the threshold; pKd (SNTG1, Q9NSN8): below the threshold |
| below the threshold | below the threshold | 3.56 | 4 | below the threshold | below the threshold | below the threshold | below the threshold | below the threshold | below the threshold | 5.7 | below the threshold | below the threshold | 3.77 | 3.48 | 3.57 | below the threshold | below the threshold | below the threshold | below the threshold | DDEDRLVIEI [ZNF831, Q5JPB2] | pKd (MAGI1_1, Q96QZ7): below the threshold; pKd (MAGI1_2, Q96QZ7): below the threshold; pKd (MAST1, Q9Y2H9): below the threshold; pKd (MPP6, Q9NZW5): below the threshold; pKd (MPP7, Q5T2T1): 3.64; pKd (NHERF4_4, Q86UT5): 3.66; pKd (PDZRN4_1, Q6ZMN7): below the threshold; pKd (RAPGEF6, Q8TEU7): below the threshold; pKd (SNTG1, Q9NSN8): below the threshold |
| below the threshold | below the threshold | 4.96 | 4.77 | below the threshold | below the threshold | below the threshold | below the threshold | below the threshold | below the threshold | below the threshold | below the threshold | below the threshold | below the threshold | below the threshold | below the threshold | below the threshold | 3.49 | 4.08 | below the threshold | PKRSFIESNV [TANC1, Q9C0D5] | pKd (MAGI1_1, Q96QZ7): below the threshold; pKd (MAGI1_2, Q96QZ7): 4.37; pKd (MAST1, Q9Y2H9): 4.7; pKd (MPP6, Q9NZW5): 3.76; pKd (MPP7, Q5T2T1): below the threshold; pKd (NHERF4_4, Q86UT5): 3.83; pKd (PDZRN4_1, Q6ZMN7): 3.82; pKd (RAPGEF6, Q8TEU7): below the threshold; pKd (SNTG1, Q9NSN8): 4.95 |
